{"source": "the RNAGym collection of RNA variant scans (doi:10.1021/acssynbio.7b00057)", "parents": {"B1": {"name": "Pistol ribozyme (parent)", "chain": "GGGUCGUUGUUCCAUAAUCGCGUGGAUAUGGCACGCAAGUUUCUACCGGGCACCGUAAAUGUCCGACUGGAGCCGUUCGGGCGGCUAUAAACAGACCUCAGGCCCGAAGCGUGGCGGCACCUGCCGCCGGUGGUAAAAAAGAUCGGAAGAGCACACGUCU"}}}
{"variants_of": "B1", "experiment": "aptazyme ON/OFF ratio, guanine; higher = stronger switching; co-transcriptional cleavage with and without guanine"}
{"variant": "U7G G9U U11C C12A C13G", "aptazyme ON/OFF ratio": 1.28}
{"variant": "U7G G9C U10G U11G C12A C13G", "aptazyme ON/OFF ratio": 1.13}
{"variant": "U7G U8C G9C U11A C12A C13U", "aptazyme ON/OFF ratio": 1.13}
{"variant": "U7C U11C C13U", "aptazyme ON/OFF ratio": 1.13}
{"variant": "U7G U8A G9U C12G C13A", "aptazyme ON/OFF ratio": 1.11}
{"variant": "U7A U8C G9C U10G U11G C12U", "aptazyme ON/OFF ratio": 1.05}
{"variant": "U7C U8A G9A U10A U11G C13U", "aptazyme ON/OFF ratio": 1.25}
{"variant": "U7C U8A G9A U10G C12U C13U", "aptazyme ON/OFF ratio": 0.977}
{"variant": "U7G U8G G9C U10C U11C C12A", "aptazyme ON/OFF ratio": 1.09}
{"variant": "U7G U8A G9C U11G C12U C13G", "aptazyme ON/OFF ratio": 1.07}
{"variant": "U7G U8G G9A U10C U11A C12U C13U", "aptazyme ON/OFF ratio": 1.08}
{"variant": "U7C U8G U10C C12U C13G", "aptazyme ON/OFF ratio": 1.3}
{"variant": "U7G U8A U11C C12G C13G", "aptazyme ON/OFF ratio": 1.2}
{"variant": "U7G U8C G9A U10G U11C C13U", "aptazyme ON/OFF ratio": 1.05}
{"variant": "U7A U8C G9U U11G C12U", "aptazyme ON/OFF ratio": 1.35}
{"variant": "U8A U11A C12A C13G", "aptazyme ON/OFF ratio": 1.16}
{"variant": "U8G U10G U11C C12G C13A", "aptazyme ON/OFF ratio": 1.11}
{"variant": "U10A C12A C13A", "aptazyme ON/OFF ratio": 1.22}
{"variant": "U7C U8G G9C U10C U11C C12G C13A", "aptazyme ON/OFF ratio": 1.19}
{"variant": "U7C U8C G9A U11A C12G C13A", "aptazyme ON/OFF ratio": 1.1}
{"variant": "U7A U8A G9U U10A U11C C12U C13U", "aptazyme ON/OFF ratio": 1.21}
{"variant": "U7C G9U U10A U11G C12U", "aptazyme ON/OFF ratio": 1.3}
{"variant": "U7C G9U U10A U11G C12G", "aptazyme ON/OFF ratio": 1.19}
{"variant": "U7G U8G G9A U10A U11A C13A", "aptazyme ON/OFF ratio": 1.16}
{"variant": "U7C U8A G9C U10G U11G C12U C13U", "aptazyme ON/OFF ratio": 1.09}
{"variant": "U7A U8A U10G U11C C12A", "aptazyme ON/OFF ratio": 1.61}
{"variant": "U7A G9C U10G C12G C13U", "aptazyme ON/OFF ratio": 1.1}
{"variant": "U7C G9A U11C C13U", "aptazyme ON/OFF ratio": 1.06}
{"variant": "U8A G9A U10C U11C C12A C13G", "aptazyme ON/OFF ratio": 1.1}
{"variant": "U7A U8C G9C U10A U11G C12G", "aptazyme ON/OFF ratio": 1.12}
{"variant": "U7A U8A G9C U10C U11C", "aptazyme ON/OFF ratio": 0.984}
{"variant": "U7C G9A U10C C13A", "aptazyme ON/OFF ratio": 1.07}
{"variant": "U10G U11A C12U C13U", "aptazyme ON/OFF ratio": 1.36}
{"variant": "U7A U8G G9U U10C C12A C13G", "aptazyme ON/OFF ratio": 1.01}
{"variant": "U7G U8C U10A U11C C12G C13G", "aptazyme ON/OFF ratio": 1.06}
{"variant": "U7C U8C U10A U11G C13A", "aptazyme ON/OFF ratio": 1.25}
{"variant": "U7G U8G G9U", "aptazyme ON/OFF ratio": 1.51}
{"variant": "U7G U8G G9A U10G U11C C12U C13U", "aptazyme ON/OFF ratio": 1.29}
{"variant": "U8G U10G C13G", "aptazyme ON/OFF ratio": 1.23}
{"variant": "U7C G9U U10C C13A", "aptazyme ON/OFF ratio": 1.04}
{"variant": "U7A U8A G9A U10A U11A C12A C13G", "aptazyme ON/OFF ratio": 1.21}
{"variant": "U7C G9A U10A U11G C12A", "aptazyme ON/OFF ratio": 1.02}
{"variant": "U7G G9A U10G U11A C13U", "aptazyme ON/OFF ratio": 1.07}
{"variant": "U7C U10A C12A", "aptazyme ON/OFF ratio": 1.22}
{"variant": "U7C U8G U10A U11C C12U C13G", "aptazyme ON/OFF ratio": 1.18}
{"variant": "U7C U8A G9C U10A C12U C13U", "aptazyme ON/OFF ratio": 1.06}
{"variant": "U7A G9U U10G U11G C12U", "aptazyme ON/OFF ratio": 1.16}
{"variant": "U7G G9U U10C C12U C13A", "aptazyme ON/OFF ratio": 1.38}
{"variant": "U7G U8A G9A U10A U11A C13A", "aptazyme ON/OFF ratio": 1.09}
{"variant": "U8G U10A U11G C12A C13A", "aptazyme ON/OFF ratio": 1.11}
{"variant": "U7G U8A G9U U10G U11A", "aptazyme ON/OFF ratio": 1.05}
{"variant": "U8G G9U U10A U11C C12U", "aptazyme ON/OFF ratio": 1.05}
{"variant": "U7G U8A G9U U11G C12U", "aptazyme ON/OFF ratio": 1.23}
{"variant": "U7C U8A G9A U10A U11A C13U", "aptazyme ON/OFF ratio": 1.1}
{"variant": "U7A U8G U10C U11G C12U C13A", "aptazyme ON/OFF ratio": 1.26}
{"variant": "U7G U10G U11G C12G C13U", "aptazyme ON/OFF ratio": 1.29}
{"variant": "U7G U8C G9C U11G C12A C13U", "aptazyme ON/OFF ratio": 1.23}
{"variant": "U7A G9C U11C C12G C13U", "aptazyme ON/OFF ratio": 1.09}
{"variant": "U8A G9C U11A C12A C13G", "aptazyme ON/OFF ratio": 1.18}
{"variant": "U7A U8A G9U U10G U11A C12G C13G", "aptazyme ON/OFF ratio": 1.4}
{"variant": "U7C U8C U10A U11C C12G C13G", "aptazyme ON/OFF ratio": 1.22}
{"variant": "U7C U8A G9U U10G U11A C12A C13G", "aptazyme ON/OFF ratio": 1.09}
{"variant": "U7C U8C U10A U11G C12G", "aptazyme ON/OFF ratio": 1.41}
{"variant": "U7A G9A U10C U11G C12U C13G", "aptazyme ON/OFF ratio": 1.21}
{"variant": "U7C U8A G9A U10A U11G C12U C13U", "aptazyme ON/OFF ratio": 1.22}
{"variant": "U7G U8G G9C U11G C12U C13A", "aptazyme ON/OFF ratio": 1.3}
{"variant": "U7C U8A G9U U10G U11G C12A C13A", "aptazyme ON/OFF ratio": 1.07}
{"variant": "U7A G9A C12U", "aptazyme ON/OFF ratio": 2.04}
{"variant": "U7C G9C U11A C12A C13U", "aptazyme ON/OFF ratio": 1.04}
{"variant": "U7A U8A U11A C13U", "aptazyme ON/OFF ratio": 1.11}
{"variant": "U7C U8A G9A U10G U11A C12U", "aptazyme ON/OFF ratio": 1.01}
{"variant": "U7G U8C U10G C12U C13A", "aptazyme ON/OFF ratio": 1.34}
{"variant": "U7C U10C U11A C12G C13U", "aptazyme ON/OFF ratio": 1.15}
{"variant": "U7C U8C G9U U10A U11G C13A", "aptazyme ON/OFF ratio": 1.12}
{"variant": "U7G U10G U11C C12U", "aptazyme ON/OFF ratio": 1.17}
{"variant": "U7A U8G G9A U10C U11C", "aptazyme ON/OFF ratio": 1.02}
{"variant": "U7C U8C G9A U10G U11C", "aptazyme ON/OFF ratio": 1.22}
{"variant": "U7C U8C U10A C12G", "aptazyme ON/OFF ratio": 1.08}
{"variant": "U8A C12U C13U", "aptazyme ON/OFF ratio": 1.38}
{"variant": "U7C U8A G9A U11G C12U", "aptazyme ON/OFF ratio": 1.37}
{"variant": "U8C C12U C13U", "aptazyme ON/OFF ratio": 1.28}
{"variant": "U7C U8A G9A U10A C12A", "aptazyme ON/OFF ratio": 1.19}
{"variant": "U8C G9U U10G U11G C12U C13A", "aptazyme ON/OFF ratio": 1.11}
{"variant": "U7A U8C G9U U10C U11A C13G", "aptazyme ON/OFF ratio": 1.09}
